For the test, the target named is T1, interleukin-23 receptor (IL-23R), Q5VWK5.
T1 chain: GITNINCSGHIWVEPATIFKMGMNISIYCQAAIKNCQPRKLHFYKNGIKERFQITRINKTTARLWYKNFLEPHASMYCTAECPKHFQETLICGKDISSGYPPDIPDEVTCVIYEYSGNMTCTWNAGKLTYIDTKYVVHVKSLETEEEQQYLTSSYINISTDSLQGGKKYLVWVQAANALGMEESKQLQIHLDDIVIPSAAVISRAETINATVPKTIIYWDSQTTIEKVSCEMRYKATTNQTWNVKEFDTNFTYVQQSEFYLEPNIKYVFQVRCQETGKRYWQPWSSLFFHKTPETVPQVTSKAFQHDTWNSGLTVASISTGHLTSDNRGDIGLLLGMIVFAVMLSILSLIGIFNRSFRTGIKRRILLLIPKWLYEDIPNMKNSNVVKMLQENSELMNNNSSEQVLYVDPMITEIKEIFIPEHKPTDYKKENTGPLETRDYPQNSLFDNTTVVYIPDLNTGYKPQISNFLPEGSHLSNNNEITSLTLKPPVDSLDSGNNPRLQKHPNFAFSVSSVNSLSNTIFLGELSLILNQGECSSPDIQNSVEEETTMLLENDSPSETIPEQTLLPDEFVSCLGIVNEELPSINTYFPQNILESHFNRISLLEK
The test can be described thus: cell-based or functional assay.

13 molecules from patent US20240279281A1, “Peptide Inhibitors of Interleukin-23 Receptor” (Janssen Pharmaceutica NV, priority 2023, published 2024) can be followed below.

Positions of bridges follow the written chain, without caps; N, C: chain ends. Non-standard residues stand in square brackets, D forms with d. No end group written: not given here. Trp(7-Me) = Cc1cccc2c(C[C@H](N)C(=O)O)c[nH]c12; 3Pal = N[C@@H](Cc1cccnc1)C(=O)O; Lipidated = not defined here; NMeK = CN[C@@H](CCCCN)C(=O)O; Pen = CC(C)(S)[C@H](N)C(=O)O; lipid = not defined here; Thp = NC1(C(=O)O)CCOCC1; Sar = CNCC(=O)O Where only a bound is given, the exact number is not on record here.

B1: SEQ ID NO: 198 (peptide)
peptide: [Pen]NT[Trp(7-Me)]K(Ac)[Pen][5‑(4-(2-amino-2-carboxyethyl)phenoxy)‑N,N,N‑trimethylpentan‑1‑aminium][2‑amino‑3‑(6-hydroxynaphthalen-2-yl)propanoic acid][Thp]K(Lipidated)N[3Pal][Sar]
modifications: disulfide 1-6 (inferred); ends not checked; also: K10: lipidated lysine, lipid not given here
For B1, the PBMC pSTAT3 IC50 was less than 1 nM.

B2: SEQ ID NO: 210 (peptide)
peptide: [(R)‑3‑carboxy‑2‑(4-(((R)-5-carboxy-5-hydrazineylpentyl)amino)-4-oxobutanamido)‑N,N,N‑trimethylpropan‑1‑aminium][Pen]NT[Trp(7-Me)]K(Ac)[Pen][2‑amino‑3‑(4-(2-aminoethoxy)phenyl)propanoic acid][2‑amino‑3‑(6-hydroxynaphthalen-2-yl)propanoic acid][Thp]EN[3Pal][NMeK]
modifications: disulfide 2-7 (inferred); not fully specified (residue 14); ends not checked; also: X14: lipidated N-methyl-lysine, lipid not given here
On to B2, for which the PBMC pSTAT3 IC50 was less than 1 nM.

B3: SEQ ID NO: 204 (peptide)
peptide: [(R)‑3‑carboxy‑2‑(4-(((R)-5-carboxy-5-hydrazineylpentyl)amino)-4-oxobutanamido)‑N,N,N‑trimethylpropan‑1‑aminium][Pen]NT[Trp(7-Me)]K(Ac)[Pen][2‑amino‑3‑(4-(2-aminoethoxy)phenyl)propanoic acid][2‑amino‑3‑(6-hydroxynaphthalen-2-yl)propanoic acid][Thp]EN[3Pal][NMeK]
modifications: disulfide 2-7 (inferred); not fully specified (residue 14); ends not checked; also: X14: lipidated N-methyl-lysine, lipid not given here
Consider B3, for which the PBMC pSTAT3 IC50 was less than 1 nM.

B4: SEQ ID NO: 193 (peptide)
peptide: [Pen]ET[Trp(7-Me)]K(Ac)[Pen][2‑amino‑3‑(4-(2-aminoethoxy)phenyl)propanoic acid][2‑amino‑3‑(6-hydroxynaphthalen-2-yl)propanoic acid][Thp]K(Lipidated)N[3Pal][Sar]
modifications: disulfide 1-6 (inferred); ends not checked; also: K10: lipidated lysine, lipid not given here
On to B4, for which the PBMC pSTAT3 IC50 is less than 1 nM.

B5: SEQ ID NO: 190 (peptide)
peptide: R[Pen]NT[Trp(7-Me)]K(Ac)[Pen][2‑amino‑3‑(4-(2-aminoethoxy)phenyl)propanoic acid][2‑amino‑3‑(6-hydroxynaphthalen-2-yl)propanoic acid][Thp]EN[3Pal][NMeK]
modifications: disulfide 2-7 (inferred); not fully specified (residue 14); ends not checked; also: X14 lipidated N-methyl-lysine, lipid not given here
B5: the PBMC pSTAT3 IC50 was less than 1 nM. Consider R[Pen]NT[Trp(7-Me)]K(Ac)[Pen][2‑amino‑3‑(4-(2-aminoethoxy)phenyl)propanoic acid][2‑amino‑3‑(6-hydroxynaphthalen-2-yl)propanoic acid][Thp]EN[3Pal][Sar] (disulfide 2-7 (inferred); ends not checked) [SEQ ID NO: 217], for which the PBMC pSTAT3 IC50 was less than 0.1 nM.

B6: SEQ ID NO: 191 (peptide)
peptide: R[Pen]NT[Trp(7-Me)]K(Ac)[Pen][2‑amino‑3‑(4-(2-aminoethoxy)phenyl)propanoic acid][2‑amino‑3‑(6-hydroxynaphthalen-2-yl)propanoic acid][Thp]EN[3Pal][Sar]K(Lipidated)
modifications: disulfide 2-7 (inferred); ends not checked; also: K15: lipidated lysine, lipid not given here
As for B6, the PBMC pSTAT3 IC50 was less than 1 nM.

B7: SEQ ID NO: 186 (peptide)
peptide: [Pen]NT[Trp(7-Me)]K(Ac)[Pen][2‑amino‑3‑(4-(2-aminoethoxy)phenyl)propanoic acid][2‑amino‑3‑(6-hydroxynaphthalen-2-yl)propanoic acid][Thp]K(Lipidated)N[3Pal][Sar]
modifications: disulfide 1-6 (inferred); ends not checked; also: K10 lipidated lysine, lipid not given here
Regarding B7, the PBMC pSTAT3 IC50 was less than 1 nM.

B8: SEQ ID NO: 185 (peptide)
peptide: [Pen]NT[Trp(7-Me)]K(Ac)[Pen][2‑amino‑3‑(4-(2-aminoethoxy)phenyl)propanoic acid][2‑amino‑3‑(6-hydroxynaphthalen-2-yl)propanoic acid][Thp]K(Lipidated)N[3Pal][Sar]
modifications: disulfide 1-6 (inferred); ends not checked; also: K10 lipidated lysine, lipid not given here
For the molecule B8, the PBMC pSTAT3 IC50 is less than 1 nM.

B9: SEQ ID NO: 214 (peptide)
peptide: [Pen]ET[Trp(7-Me)]K(lipid)[Pen][2‑amino‑3‑(4-(2-aminoethoxy)phenyl)propanoic acid][2‑amino‑3‑(6-hydroxynaphthalen-2-yl)propanoic acid][Thp]K(Ac)N[3Pal][Sar]
modifications: disulfide 1-6 (inferred); ends not checked; also: K5: lipidated lysine, lipid not given here
B9 displayed a PBMC pSTAT3 IC50 of less than 1 nM.

B10: SEQ ID NO: 216 (peptide)
peptide: K(lipid)[Pen]NT[Trp(7-Me)]K(Ac)[Pen][2‑amino‑3‑(4-(2-aminoethoxy)phenyl)propanoic acid][2‑amino‑3‑(6-hydroxynaphthalen-2-yl)propanoic acid][Thp]K(Ac)N[3Pal][Sar]
modifications: disulfide 2-7 (inferred); ends not checked; also: Lys1 lipidated, lipid not given here
On to B10, for which the PBMC pSTAT3 IC50 is less than 0.1 nM.

B11: SEQ ID NO: 215 (peptide)
peptide: [Pen]ET[Trp(7-Me)]K(Ac)[Pen][2‑amino‑3‑(4-(2-aminoethoxy)phenyl)propanoic acid][2‑amino‑3‑(6-hydroxynaphthalen-2-yl)propanoic acid][Thp]K(lipid)N[3Pal][Sar]
modifications: disulfide 1-6 (inferred); ends not checked; also: K10: lipidated lysine, lipid not given here
Regarding B11, the PBMC pSTAT3 IC50 was less than 0.1 nM.

B12: SEQ ID NO: 192 (peptide)
peptide: [Pen]ET[Trp(7-Me)]K(Lipidated)[Pen][2‑amino‑3‑(4-(2-aminoethoxy)phenyl)propanoic acid][2‑amino‑3‑(6-hydroxynaphthalen-2-yl)propanoic acid][Thp]K(Ac)N[3Pal][Sar]
modifications: disulfide 1-6 (inferred); ends not checked; also: K5: lipidated lysine, lipid not given here
With B12, the PBMC pSTAT3 IC50 was less than 1 nM.
